# Measurements reported in US20250313612A1 (Adimab, published 2025).
# Positions count from the first letter of the chain named.
# B1: ADI-14519 (antibody, V domains shown)
# VH: EVQLVESGAEMKQPGASVKVSCEGFGNTLSERSIHWVRQAPGKGPEWMGDYDHEDKEAIYAPKFQGRLTISADMSTDIASLELNSLTSEDTAVYYCATVIAVGAYDIWGQGTLVTVSS
# VL: EIVLTQSPSSLYASIGDRVTITCRTGQSISRYLNWYQQKPGKAPKLLIYAASTLQSGVPSRFSGSGAGTDFTLTIRGLLPEDFATYFCQQSYIIPYTFGQGTKVEIK
# B2: ADI-14448 (antibody, V domains shown)
# VH: EVQLVESGGGLVKPGGSLRLSCAASGSSFRYSYMSWVRQAPGKGLQWVASISPSSTYTDYADSVKGRSTISRDHDKISLQVNSLRGDDTAVYYCVRHMNLVMGPFAFDIWGRGTMVTVSS
# VL: QSVVTQPPSLSGAPGQRITISCTGSSSNIGAGYDVNWYQQLPGTAPKLLIYAKTNRPSGVPERFSGSESGTSASLAITGLQPEDEADYYCQSYDRIGMYVFGTGTKLTVL
# B3: ADI-14521 (antibody, V domains shown)
# VH: QVQLVQSGTEVKKPGASVKVSCLTSGYTFTHFGISWVRQAPGQGLEWMGWFSAYNGNTKYAQKFQGRITLTIDTSTSIAYLELRSLRSDDTAVYYCARDPPSLTAAGTLDYWGQGTLVTVSS
# VL: DIRLTQSPLSLPVTLGQPASISCSSNQSLVYSDGNTYLSWFQQRPGQSPRRLIYKVSDRDSGVPDRFSGSGSGTDFTLKISRVEAEDVGVYYCMQATDWPRTFGQGTKVEIK
# B4: ADI-14455 (antibody, V domains shown)
# VH: QVQLVQSGAEVKKPGASVKVSCKASGYTFTSYGTSWVRQAPGQGLEWMGWISAYNGNTNYAQNLQGRVTMTTDTSTSTSYMELRSLRSDDTAVYYCARDVPVIAAGTMDYWGQGTLVTVSS
# VL: B3 VL with R3V, L4M, S7T, S24R, N26S, S39N, D58N, A96G, T97P, D98H
# B5: ADI-14520 (antibody, V domains shown)
# VH: QVQLQQWGAGLVKPSETLSLTCAVYGGSFSGYQWHWFRQPPGKGLEWIGEINHSEITHYNASLKSRVTLSIDTSKNQFSLNLTSVTAADTAVYYCARASSGSYNFEYWFDPWGQGTLVTVSS
# VL: QSVLTQPPSVSVAPGKTAWLTCGGNNIGSKRVHWYRQKPGQAPVLVVYDDYDRPSGTPERVSGSNSGNTATLTISRVEDGDEGDYYCQVWDDPSDHAVFGGGTKLTVL
# B6: ADI-14456 (antibody, V domains shown)
# VH: QVQLVQSGAEVKKPGASVKVSCEASEYSFSGDYVHWVRQAPGQGLEWMGWIKAVNGGANYAQKFHGRVTMTTDSSKSTVYLEMSRLTPADTAIYFCAKDRAASVHVPAGAFDLWGQGTLVTVSS
# VL: DIQMTQSPSSLSAYVGDRVSITCRASQSIDNFLNWYRQRPGKAPELLIYAASTLQGGVPSRFSGSGSGTHFTLTISSLQPEDFATYYCQQSFTIPSITFGQGTRLEIK
# B7: ADI-14464 (antibody, V domains shown)
# VH: B6 VH with E26A, K63R, K76R, M83L, S84T, A89D, I93V, A110E
# VL: B6 VL with M4V, Y14S, D30S, F92Y
# B8: ADI-14451 (antibody, V domains shown)
# VH: EVQLVESGAEVRKPGASVKVSCKASGYIFINYYIHWVRQAPGQGLEWMGWINPNSGASNHAQTFEGRITMTTDTSSNTAYMELSRLREDDTAVYYCARSQQLLVITDYSLDYWGLGTLVTVSS
# VL: SSELTQDPAVSVALGQTVRITCHGDTLRNYYPAWYQQKPGQAPVLVVSDRNTRPSGIPDRFSVSTSGNTASLTITGAQAEDEGDYYCNCRDSSGHRLVFGGGTKLTVL
# Molecular target: RSV F protein of recombinant mKate-RSV, subtype B (18537) (Respiratory syncytial virus subtype B …, UniProt P13843 26-574)
# Assay: cell-based or functional assay
row,Binder,Neut IC50 subtype B [mg/L]
1,B1,3.43
2,B2,0.066
3,B3,0.123
4,B4,0.036
5,B5,0.045
6,B6,0.372
7,B7,0.161
8,B8,0.06

# Molecular target: RSV F protein of recombinant mKate-RSV, subtype A (strain A2) (Respiratory syncytial virus subtype A …, UniProt P03420 26-574)
# Assay: cell-based or functional assay
row,Binder,Neut IC50 subtype A [mg/L]
1,B1,12.2
2,B2,0.043
3,B3,0.083
4,B4,0.012
5,B5,0.029
6,B6,> 10
7,B7,> 10
8,B8,0.02
